The record followed here is PMC7396694, “Two MarR-Type Repressors Balance Precursor Uptake and Glycine Betaine Synthesis in Bacillus subtilis to Provide Cytoprotection Against Sustained Osmotic Stress” (Frontiers in Microbiology, 2020).

Data set [1] concerns the target T1, GbsR-Strep-tag II (Bacillus subtilis JH642) (UniProt P71015).
T1 sequence: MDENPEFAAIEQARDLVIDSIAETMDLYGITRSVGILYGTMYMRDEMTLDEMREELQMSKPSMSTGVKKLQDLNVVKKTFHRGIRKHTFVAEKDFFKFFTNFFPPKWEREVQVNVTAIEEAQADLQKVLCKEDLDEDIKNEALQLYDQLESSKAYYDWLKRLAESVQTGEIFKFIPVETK
The data set can be described thus: EMSA. Conditions: 10 mM Tris pH 8, 150 ug/ml herring sperm DNA, 7.5% glycerol, 1 pmol DNA in 20 ul, 20 min at 25 C; native 8% polyacrylamide gel.

Data set [2] concerns the molecule itself. The data set is described as follows: SEC; HiLoad 16/600 Superdex 200 pg; 2 ml protein solution (1 mg/ml) loaded immediately after affinity purification; 100 mM potassium phosphate (pH 8), 300 mM NaCl; column standardised with thyroglobulin, albumin, ovalbumin, cytochrome C.

On to “GGGACTTTGACAGTTTAAAAACCATATGTTAGATTAAGGTTGTTAAAAACATTAAATTTTTATTTAACAAACTTTATTTACGTCAAGGAGGCTTAT (double strand) [gbsA fragment with GbsR operator]”, for which the binding entry in data set [1] was “binds”.

B1: GbsR-Strep-tag II recombinant protein (natural protein, Bacillus subtilis, UniProt P71015 1-180, looked up)
chain: T1 sequence
notes: GbsR, choline-responsive MarR-type repressor of Bacillus subtilis; coding region of gbsR amplified from chromosomal DNA of B. subtilis JH642; also called GbsR repressor; not shown: Strep-tag II, C-terminal, kept
By stoichiometry N is commonly meant the number of molecules, sites or subunits per partner or assembly. For the molecule B1, in data set [2], the “stoichiometry N” value turned out to be 2.
